Assay results reported in the DeepSol protein solubility set.

assay: soluble on expression in E. coli; label from the status in PepcDB or PDB records

Row | Sequence | soluble on expression in E. coli
1 | MGSDKIHHHHHHMAKLMNNKLKKEIIDFAHSIGIDSIGFTTADPFDELKQKLEEYHAKGYASGFEESNISLRTEPKLSLPSARSIIAIAVGYPNKLKGAPKSVKGDRRGMFARASWGQDYHSIMRKRLDKLADFIKEKVPDVEIQSMVDTGVLSDRAVAERAGLGFTGRNGFVISPELGTWSYLGEMLVSIPFEPDDPLLDSCGDCTICVDRCPTGALVGNGQLNSQKCISFLTQTKGYLQDEYRYKIGNRLYGCDTCQQVCPKNRGINTQHDDIVLEPEILKPRLVPLLQMSNKKFKSTYGHLAGAWRGKKPIQRNAIIALAHFKEESAIPELKEVALNDPRPMIRGTAYWAIGQILEDDAISFIDEHYENEIEEVQLEMKKGLQMRREQK | not soluble
2 | MGSDKIHHHHHHMALKHYKNSDSTVFNDAKALFDLNKNILLKGPTGSGKTKLAETLSEVVDTPMHQVNCSVDLDTESLLGFKTIKTNAEGQQEIVFVDGPVIKAMKEGHILYIDEINMAKPETLPVLNGVLDYRRQITNPYTGEVIKAVPGFNVIAAINEGYVGTLPMNEALKNRFVVIHVDYIDGDILKNVIKEQSLLQDDKQIEQIIKFNEDLRTMSKQGQISEEAASIRALLDLCDLITVMPVERAIKRTIIDKLEDEREQQAIYNAVELNF | not soluble
3 | MGSDKIHHHHHHMALLTAETFRLQFNNKRRLRRPYYPRKALLCYQLTPQNGSTPTRGYFENKKKCHAEICFINEIKSMGLDETQCYQVTCYLTWSPCSSCAWELVDFIKAHDHLNLGIFASRLYYHWCKPQQKGLRLLCGSQVPVEVMGFPEFADCWENFVDHEKPLSFNPYKMLEELDKNSRAIKRRLERIKS | not soluble
4 | MGSDKIHHHHHHMALRIAFLTVGDPQRRTGGYLYHREVFRCWQARNQPVEEIVLGPADVAGQIAASNRAGQLVEAGRYDVIVVDALARAVVAPWLAHWQRLCPLVTLVHELPTVAGASDPREYEWEQMLLRADALVAVSDDGANTLIARGVEAARIHIASGGCDRLLSRMPVGKAREELVIAVAQWIPRKNLAHLVRVWGQVAEHPWRLELIGESDADPVYAGEVWQAIQHCPANVIVRGVLADDELAERYARASLFALPSRFEGYGLVFAEALACGLPVIAGAVGPVPALVGAGGMLVHPDDEQALSVALRTVMRDAHLRQHLSTAARQRASTLPRWQDTAQHLLCAIEWAYAQRHRVST | not soluble
5 | MGSDKIHHHHHHMANMKNSNDRIILFRKAGEKVDATKMLFLTEYGLSHEADTDTEDTMDGSYNTGGSVESTMSGTAKMFYGDDFADEIEDAVVDRVLYEAWEVESRIPGKNGDATKFKAKYFQGFHNKFELKAEANGIDEYEYEYGVNGRFQRGFATLPEAVTKKLKATGYRFHDTTKADALTGEDLTAIPQPKVDSSTVTPGEV | not soluble
6 | MGSDKIHHHHHHMANVIKLHKGLNINLKGKPAQEFFDVKQPDIYAIVPDDFHGVTPKVVVKEQEYVTAGGTLFVDKNHPEVKFVSPVSGVVTSVERGERRKVLSISIAAAKEQDYEEFGKKDVSTLTGEQVKAALLEAGLFSFIIQRPYIVVADPNAKPKGIFVSAFDTNPLAADFEFVLKGQEKDFQTGLDALAKMAKTYLNISVEQKSPALTNAKNVTVTAFDGPNPAGNVGVQINHISPINKGETVWTLRAEEVIFIGRLFNTGRVDLTRTIALTGSEVKKPAYCKLKVGALLTDIFAGRVNGGKNLRYINGNVLTGTLVKPNGFLGAHATSLTVIPEGDDRHEFLGFIMPRTDQYSANRSYFSWLCGNKEYTLDARIKGGERHMIMSGEYDKVFPMSIFPEYLIKAIIAGDIDRMEALGIYEVAPEDFAVCEFVDSSKLELQRIVRQGLDMLRKEMC | not soluble
7 | MGSDKIHHHHHHMAQNFHDNSQVSSEMSTAISRTAKPSSEFYSIFSEEEILGIICALEIRREIPLKYSYKGRGAKIWDDFYQKYIIPRWYRISNVEIELLKSNFKYFNDNIKSGEKINIVDVGAGNSYPVKDFVQRLNKLNKINKYVALDISEELLNLSKNNFKKWFPNVEFISSTIDIENNCVPKTLFQNNPDLEMDNTAKIFLHLGVTIGNHQNRDKVFKNFRESMGKNDFLVFTNEIGSNSKWDGNVRGGCKYHVEEIYGWVKNKVGIESEGCELVRKYDLKTDSIVANIRFNHDYTINFSRMGIDKKIEISEGEEITIWRHHKYEMPKLLQELERSGLQLIQYSTDKYKSHIMVICKISSN | not soluble
8 | MGSDKIHHHHHHMAQQTPLYEQHTLCGARMVDFHGWMMPLHYGSQIDEHHAVRTDAGMFDVSHMTIVDLRGSRTREFLRYLLANDVAKLTKSGKALYSGMLNASGGVIDDLIVYYFTEDFFRLVVNSATREKDLSWITQHAEPFGIEITVRDDLSMIAVQGPNAQAKAATLFNDAQRQAVEGMKPFFGVQAGDLFIATTGYTGEAGYEIALPNEKAADFWRALVEAGVKPCGLGARDTLRLEAGMNLYGQEMDETISPLAANMGWTIAWEPADRDFIGREALEVQREHGTEKLVGLVMTEKGVLRNELPVRFTDAQGNQHEGIITSGTFSPTLGYSIALARVPEGIGETAIVQIRNREMPVKVTKPVFVRNGKAVA | not soluble
9 | MGSDKIHHHHHHMAQSDKDLTLTPLKGKSGQAYIGTYPNGDKIFVKINTTPILAALAKEQIAPQLLWAKRLGNGDMMSAQEWLDGRLLTRADMNSKQIIQVLLQMHKSKPLVNQLLQLNYKVETPLDLLLSWERSAPYQISENAYLQSVVAEMKRNLPDFKKDYATIVHGDVRHSNWVITTSGLVYLVDWDSVRVTDRMYDVAHILSHYIPHTRWVEWLSYYGYKQNTKVFQKIKWYGQLSYLSQILKYYENRDMENVNQEIYELRKFRESF | not soluble
10 | MGSDKIHHHHHHMARHALMRTELLPTFGMPDKKVDGFIARIRERHPKMIFGYPSAMSHIVPCAEQRGVRFDDLGIKVVFCTSERLYNHQRETIVRLFGCPVANGYGGRDAGFIAHECPNGNMHVITEDIVVEIIGEAGRVLPHRQSGKIVVTHLATRDYPFIRYRTGDIASLSEETCSCGRGLPLLTDIQGRNTDFVVAAEGTVLHGLALIYVVHDLNEVRTFKIVRKNREHTRILLAPEAGGDMTGIDTIIIDGFRCRLGAKVTVKFVDAVLAEKSGKFCYVASHVVLH | not soluble
11 | MGSDKIHHHHHHMASESWMKTQAPDPTNLPAEINPEVPSIARVYDYFLGGKDNFPADRAAAAAVEKVFPQGKQLGRESRMLLRRATRELVRAGVRQFLDIGSGLPTAGNVHEIAHEIDPEVRVVYIDNDPVVLAHGRALLADEVTTTVVQADLRHPDGIFDNPEVRALLDFDQPVAVFLASILHHFDDSDDPWALSRKIRDRISSGSYMLITHFYDSGDPVCREVEQALLEGGLGSGWFRTKEQIERFFEGMDVLEPGVVAANEWRPDAETPTDSTTHHLLAGGLARKP | not soluble
12 | MGSDKIHHHHHHMASKATSIDIAYRAGVSQSTVSRALRNSPLVNLETRQRIQAIAKELNYKVDKNASNLRMQNSHTLALLICEDPTNDESMINPFFLSMLGSITRATARQGYDLLVSFQQLSTDWHADYEDSNKADGIILLGYGDYMDYAHKLDKLIEKNTHFVIWGAEHNNKAVLSIGCDNHQGGFVATEHLLGLGHKHIAFLGDSSSRSPEFRDRYLGHVDALQSTGIEADTQLQHDAINTEASGYHAANVLLDSGVTFDAIFTASDLIAIGAIRALKKRGVLVPEQVAVVGYDDIPVASFANPALTTIKQDTQFAGEILVESVLKLIRGQEVSQRLIKTHLVVRSSCGANVEDN | not soluble
13 | MGSDKIHHHHHHMATEIIYMVKDWFEWHDLYKNEPKLQQRLQIVQEYISYSLNLPEPGLIRVVSVCAGDGRDLLGTLSNHPRAKDVYARLVELNPHLVERGQQTIESLGLTKQIEFINGDATLSSNYLGAVPADIVIVCGVFGNLADEAELNRLLANLSFLSKQGAFVIWTRGHSNGIPHSETVRKFFREYGFEEVNFKLTATGDMGVGIHRYLGESLAAPKEQQFFAFTGVPSKAR | not soluble
14 | MGSDKIHHHHHHMATGSNIRTYFQGSWHEGDAPIIRAADHGAWLGSGVFDGARYFDGMAPDLEAHCARVNRSAEALMLTPTVSTQDMVEIVREGLKAYGPDQAVYIRPMYWGIDGDPTAIIPQADSTGFAVCLEEIPMAPATASATLTTTRFRRPVLEDAVVNAKAGCLYPNNARMLREARSKGFTNALVADALGNVAETATANIFMVKDGEVFTPIANGTFLAGITRARHIKNLRADGVPVHETVLSFADFHAADEVFMSGNMSKVTPVTALDDTQYQIGPIARRARALYWDWAKSTA | not soluble
